Assay results: the supplement of paper PMC10266784

B1: library; numbered along this chain (parent)
chain: MAAAAAAAAEQQSSNGPVKKSMREKAVERRSVNKEHNSNFKAGYIPIDEDRLHKTGLRGRKGNLAICVIILLFILAVINLIITLVIWAVIRIGPNGCDSMEFHESGLLRFKQVSDMGVIHPLYKSTVGGRRNENLVITGNNQPIVFQQGTTKLSVENNKTSITSDIGMQFFDPRTQNILFSTDYETHEFHLPSGVKSLNVQKASTERITSNATSDLNIKVDGRAIVRGNEGVFIMGKTIEFHMGGNMELKAENSIILNGSVMVSTTRLPSSSSGDQLGSGDWVRYKLCMCADGTLFKVQVTSQNMGCQISDNPCGNTH

Variants of: B1
Experiment: SGCB cell-surface expression functional score (HA stain, bin4 vs bin1, normalised to synonymous) (log10 ratio); higher = more cell-surface SGCB (functional)
How it was run: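 Codon-saturation libraries of HA-tagged, YFP-fused human beta-sarcoglycan were lentivirally transduced at MOI <0.1 into HEK293 cells stably expressing alpha-, gamma- and delta-sarcoglycan. YFP-positive cells were sorted after 72 hours, grown 5–7 days, stained on ice with Alexa Fluor 647 anti-HA, fixed, sorted into four 5% intensity bins and amplicon-sequenced. The functional score is the log ratio of highest-bin to lowest-bin variant frequency, taken as the median over codons and duplicate transductions. Synonymous variants were scaled per section to mean 0, SD 0.5.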

| Variant | SGCB cell-surface expression functional score (log10) |
| --- | --- |
| I78C | -0.19 |
| M305G | -0.51 |
| G245V | -0.07 |
| L64D | -0.4 |
| H36G | 0.11 |
| L268G | -0.22 |
| R51C | -0.24 |
| W87V | -0.45 |
| M22Q | 0.27 |
| L84H | -0.4 |
| R23E | 0.28 |
| M262K | 0.79 |
| G245W | 0.92 |
| K196R | 0.33 |
| V300P | -0.35 |
| T55Y | 0.15 |
| D48I | 0.19 |
| A8T | 0.33 |
| R267C | 0.16 |
| D292W | -2.02 |
| G274K | -0.77 |
| V261L | 0.42 |
| R109V | 0.1 |
| N158Y | -0.05 |

| Variant | SGCB cell-surface expression functional score (log10) |
| --- | --- |
| T317P | -0.04 |
| S125G | 0.56 |
| C307D | 0.04 |
| S181L | -1.37 |
| S105Q | -0.11 |
| Q12N | 0.01 |
| L257V | 0.45 |
| L268N | 0 |
| I137P | -1.44 |
| I70P | 0.16 |
| F102Y | -1.16 |
| G93E | -1.2 |
| G93V | -1.79 |
| R207D | -1.43 |
| A42T | 0.1 |
| K111E | -0.76 |
| V298C | 0.01 |
| V77P | -0.24 |
| H53V | 0.1 |
| N79D | -0.24 |
| L84M | 0.1 |
| R29W | 0.21 |
| S214G | -0.32 |
| L179E | -1.07 |

| Variant | SGCB cell-surface expression functional score (log10) |
| --- | --- |
| R51F | 0.49 |
| D311H | 0.31 |
| E240K | 0.46 |
| V113W | -1.16 |
| F296G | -0.62 |
| G222T | 0.6 |
| R131N | 0.24 |
| P121V | 0.5 |
| I239G | -0.41 |
| V200N | -3.23 |
| D172F | -0.3 |
| Q169I | 0.44 |
| S310H | -0.5 |
| G244W | 0.55 |
| K54L | 0.21 |
| M305R | -0.25 |
| S31P | 0.13 |
| S310K | 0.24 |
| A212M | 0.16 |
| E230K | 0.42 |
| E24V | 0.26 |
| T213P | -1.5 |
| Q308L | -0.83 |
| S197R | -0.6 |

| Variant | SGCB cell-surface expression functional score (log10) |
| --- | --- |
| A65W | 0.48 |
| S310I | 0.04 |
| R60C | 0.47 |
| R23Q | 0.33 |
| S161P | -1.15 |
| I81T | -0.23 |
| V232H | 0.69 |
| G244Y | -0.22 |
| V32P | 0.11 |
| C67T | -0.03 |
| R30V | -0.05 |
| E101Q | -0.15 |
| L57H | -0.36 |
| N15A | 0.45 |
| K34H | 0.6 |
| D115M | -1.51 |
| L71E | 0.1 |
| A8V | 0.43 |
| G315F | -0.43 |
| L216Y | -1.59 |
| S264E | 0.53 |
| N217G | 0.5 |
| I178D | -0.82 |
| L108C | 0.01 |

| Variant | SGCB cell-surface expression functional score (log10) |
| --- | --- |
| L72S | -0.07 |
| G274N | -0.16 |
| R227G | 0.48 |
| P121K | -0.78 |
| S21M | -0.02 |
| M1Y | -0.02 |
| K19F | 0.01 |
| M1L | -1.26 |
| V127S | -1.34 |
| S14G | 0.43 |
| R91L | -1.93 |
| L287H | -0.31 |
| V155M | 0.02 |
| K219T | 0.6 |
| A224V | 0.53 |
| I162M | 0.23 |
| T175H | 0.32 |
| S125D | 0.46 |
| L52G | 0.29 |
| K34A | -0.03 |
| T317S | 0.15 |
| N253L | 0.96 |
| M116L | 0.08 |
| L198Y | -1.67 |

| Variant | SGCB cell-surface expression functional score (log10) |
| --- | --- |
| K219S | 0.32 |
| N158L | -0.11 |
| V195H | -1.52 |
| A251N | 0.23 |
| V226A | 0.3 |
| I66Y | 0.29 |
| A2I | 0.13 |
| N95Q | -0.12 |
| V127Q | -1.97 |
| K61T | 0.03 |
| T238Q | 0.63 |
| T186W | -1.12 |
| T175V | -0.16 |
| L249Y | 0.23 |
| G62K | -0.29 |
| C314P | -0.09 |
| I162C | -1.23 |
| N177R | 0.42 |
| G228C | 0.31 |
| D183S | -0.22 |
| K219D | 0.29 |
| R60Q | 0.38 |
| V127T | -0.96 |
| M100H | -1.39 |

| Variant | SGCB cell-surface expression functional score (log10) |
| --- | --- |
| K25Y | -0.31 |
| A8F | -0.02 |
| N33E | 0.11 |
| T151Y | -1 |
| G293H | 0.14 |
| F241K | -1.17 |
| G56A | 0.21 |
| R284W | 0.31 |
| L72Q | -0.21 |
| A251E | -1.22 |
| P121R | -1 |
| I66E | 0.12 |
| S99E | -1.96 |
| S272W | -0.13 |
| P121M | -0.6 |
| M116A | -1.24 |
| D275A | -0.05 |
| G129S | 0.47 |
| G43D | 0.22 |
| H187V | 0.03 |
| F110D | -1.65 |
| Y184N | -1.22 |
| G278C | 0.13 |
| A8R | 0.09 |

| Variant | SGCB cell-surface expression functional score (log10) |
| --- | --- |
| N79K | -0.4 |
| N177M | -0.24 |
| A65C | 0.32 |
| D292R | -1.29 |
| F296Q | -0.65 |
| V77T | -0.07 |
| Q12W | -0.29 |
| M100R | -1.19 |
| N157C | 0.02 |
| A4P | 0.44 |
| L135N | -1.44 |
| I255Y | -1.08 |
| E188K | -0.62 |
| F233L | 0.47 |
| P173K | -0.93 |
| T294C | -0.97 |
| Q299P | -0.01 |
| K152L | -0.53 |
| N37W | -0.53 |
| T209Q | -0.66 |
| V32Q | -0.03 |
| M116T | -0.8 |
| G93Y | -1.86 |
| L268I | 0.38 |

| Variant | SGCB cell-surface expression functional score (log10) |
| --- | --- |
| I144G | -0.85 |
| S164C | -0.79 |
| P192C | -0.78 |
| K19E | 0.33 |
| P173N | -0.77 |
| M168Q | -1.74 |
| S204P | -0.83 |
| D281L | 0.08 |
| G278W | 0.16 |
| S99N | -0.77 |
| T209N | -0.52 |
| E104W | -0.09 |
| I78L | -0.05 |
| M243Q | 0.88 |
| Y123D | -0.53 |
| N39V | 0.44 |
| D48G | -0.07 |
| R60F | -0.05 |
| S270H | 0.54 |
| A42I | -0.45 |
| T150K | -0.14 |
| C314K | 0.06 |
| S193F | 0.83 |
| P17Q | -0.31 |

| Variant | SGCB cell-surface expression functional score (log10) |
| --- | --- |
| A88T | 0.17 |
| R60D | 0.39 |
| V220W | -1.67 |
| A3E | 0.2 |
| S272Q | 0.34 |
| R51Q | 0.54 |
| E35R | 0.18 |
| E35K | 0.23 |
| K19C | -0.11 |
| K124W | -0.36 |
| V32I | 0.36 |
| L64P | -0.26 |
| M305T | 0.02 |
| Q276D | 0.34 |
| K159S | -0.32 |
| R51D | -0.06 |
| S210H | -0.47 |
| T209H | -0.13 |
| V145P | -1.15 |
| M116K | -1.21 |
| A42Y | -0.17 |
| K237Y | 0.48 |
| M243G | 0.64 |
| G315S | -0.28 |

| Variant | SGCB cell-surface expression functional score (log10) |
| --- | --- |
| E188Q | 0.29 |
| K152Q | -0.46 |
| P17K | 0.13 |
| W87P | -0.55 |
| V18L | -0.01 |
| A5E | -0.03 |
| S279T | 0.09 |
| A5D | -0.01 |
| E240T | 1 |
| T163C | -0.72 |
| D165Q | -1.09 |
| V127D | -1.79 |
| P269E | 0 |
| F233V | 0.18 |
| N141W | -0.63 |
| S105Y | 0.11 |
| T150V | -0.25 |
| D183W | 0.54 |
| R284D | -1.55 |
| N141L | -0.45 |
| F296C | -0.18 |
| I81D | 0.12 |
| T83H | -0.43 |
| Q276K | 0.11 |

| Variant | SGCB cell-surface expression functional score (log10) |
| --- | --- |
| L71H | 0.06 |
| M243R | -0.97 |
| D215K | 0 |
| C288P | -0.81 |
| Q299L | -0.23 |
| A5R | -0.2 |
| T294Y | -0.33 |
| P17S | 0.12 |
| I86N | -0.75 |
| T209S | 0.1 |
| V113A | -0.4 |
| F241Q | -1.74 |
| L75K | 0.2 |
| E230H | 0.9 |
| I92V | -0.31 |
| G306P | -1.24 |
| D115G | -1.39 |
| M1H | 0.01 |
| A3P | 0.42 |
| G43M | -0.74 |
| A26V | 0.53 |
| Q148N | -1.26 |
| G245H | 0.52 |
| D115F | -1.29 |

| Variant | SGCB cell-surface expression functional score (log10) |
| --- | --- |
| R223E | 0.43 |
| T55I | 0.07 |
| Q303W | -0.98 |
| E101M | -0.63 |
| A5G | 0.2 |
| G62W | -0.11 |
| Q148F | -0.38 |
| L80R | -0.03 |
| Y123A | 0.29 |
| A224N | -0.26 |
| G128L | 0.03 |
| E185N | -0.3 |
| N304E | 0.56 |
| D275G | 0.01 |
| K19L | 0.3 |
| S279Y | 0.05 |
| I66K | 0.5 |
| Q201G | 0.18 |
| A9I | 0.35 |
| N217Y | 0.59 |
| V68F | 0.55 |
| D183Y | -0.53 |
| A26C | -0.13 |
| Q12F | -0.27 |

| Variant | SGCB cell-surface expression functional score (log10) |
| --- | --- |
| T301I | -0.29 |
| G128A | 0.14 |
| T151Q | -0.98 |
| V89W | -1.16 |
| I234Q | -1.65 |
| E206W | 0.91 |
| L107W | -0.39 |
| T160A | -0.29 |
| Y44T | 0.39 |
| V261W | 0.306 |
| S38F | -0.14 |
| L153F | -0.26 |
| L72K | -0.18 |
| V298D | -0.58 |
| M289R | -0.22 |
| L198F | 0.25 |
| V263A | -0.4 |
| Q299S | 0.08 |
| S273E | 0.08 |
| F296H | -0.39 |
| F296A | -0.24 |
| M22I | -0.22 |
